In the assay the target is SUN domain of human SUN1 (amino acid residues 616–812), tags removed (human). Briefly: SEC-MALS; co-expressed and co-purified samples at >1 mg/ml on Superdex 200 Increase 10/300 GL in 20 mM Tris pH 8.0, 150 mM KCl, 2 mM DTT. (In gel filtration, larger molecules generally elute earlier.)

Experimental findings from article PMC7800377 are described below.

Sequence of KASH domain of human Nesprin-1 (KASH1, amino acid residues 8769–8797), tags removed (Q8NF91 8769-8797): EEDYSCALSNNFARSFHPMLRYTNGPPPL

Turning to “KASH domain of human Nesprin-1 (KASH1, amino acid residues 8769–8797), tags removed (from UniProt Q8NF91 8769-8797) (domain or fragment)”, the stoichiometry N (binder:target ratio (6:6)) was 1.
